Several values for one entry are separate records, joined by “and”; a condition that tells them apart may be missing. Identical values can stand only once.
What was measured:
[1] = test system: DoHH2 cells; assay: DoHH2 xenograft tumor volume reduction; type: in vivo; settings: Table 16 study; follicular lymphoma DOHH2 xenograft, CB17 SCID mice; 600 or 300 μg/m^2
Text: In a similar study, using the same xenograft study protocol as disclosed in the above examples, varying the TDCs and doses administered, the efficacy of TDCs in follicular lymphoma DOHH2 xenografts in CB17 SCID mice was studied.

[2] = test system: Granta-519 cells; assay: Granta-519 xenograft tumor volume reduction; type: in vivo, SCID mice; settings: Table 14 study, FIG. 19, 100 μg/m^2 drug at Day 0
Method: The ability of the thiomab drug conjugates prepared according to Example 11 to reduce B-cell tumor volume in xenograft models was tested according to the procedure disclosed in Example 9, herein. To SCID mice having Granta-519 cell xenograft tumors, control and anti-CD22 humanized 10F4v3 thiomab drug conjugates were administered at Day 0 in the doses shown in Table 14, below. The control HC(A118C) thiomab was anti-HER2 4D5 antibody.
Additional thiomab drug conjugates were tested in Granta-519 xenografts in CB17 SCID mice using the same protocol, although different drug doses were tested. The control antibody or control thiomab was anti-HER24D5 antibody or HC(A118C) thiomab.

[3] = target: T1, human CD22-beta-ECD-His tagged soluble antigen (Homo sapiens, UniProt P20273, A486R/Y639H); assay: BIACORE surface plasmon resonance binding to soluble CD22 ECD; settings: BIACORE 3000, 25° C., antibody coupled to chip, soluble CD22 ECD injected; one-to-one Langmuir model
T1 sequence (P20273 22-681 A486R/Y639H): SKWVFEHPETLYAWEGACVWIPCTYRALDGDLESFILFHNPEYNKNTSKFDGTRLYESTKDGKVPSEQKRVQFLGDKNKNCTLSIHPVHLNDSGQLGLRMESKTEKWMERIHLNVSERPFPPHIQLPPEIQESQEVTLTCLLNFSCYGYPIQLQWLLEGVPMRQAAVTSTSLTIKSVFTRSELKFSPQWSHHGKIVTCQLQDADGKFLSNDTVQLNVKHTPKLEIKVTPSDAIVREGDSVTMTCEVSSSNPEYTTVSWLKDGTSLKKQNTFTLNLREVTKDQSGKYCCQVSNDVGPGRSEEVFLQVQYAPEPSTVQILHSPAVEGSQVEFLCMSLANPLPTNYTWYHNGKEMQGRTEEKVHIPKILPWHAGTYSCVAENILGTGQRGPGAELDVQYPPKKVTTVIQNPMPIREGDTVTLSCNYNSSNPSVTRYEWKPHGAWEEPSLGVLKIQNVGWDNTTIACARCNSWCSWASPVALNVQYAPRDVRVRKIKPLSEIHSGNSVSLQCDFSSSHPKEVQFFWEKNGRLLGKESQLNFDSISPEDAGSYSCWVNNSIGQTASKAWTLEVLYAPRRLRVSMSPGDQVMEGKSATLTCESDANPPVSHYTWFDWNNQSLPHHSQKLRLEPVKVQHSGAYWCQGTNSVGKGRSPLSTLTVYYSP
Method: The binding affinity of murine and humanized 10F4 antibody for soluble CD22 extracellular domain (ECD) was determined by surface plasmon resonance measurement using a BIACORE® 3000 system (Biacore, Inc., Piscataway, N.J.). Briefly, carboxymethylated dextran biosensor chips (CMS, Biacore Inc.) were activated with N-ethyl-N′-(3-dimethylaminopropyl)-carbodiimide hydrochloride (EDC) and N-hydroxysuccinimide (NHS) according to the supplier's instructions. These activated chips were coated with anti-CD22 IgG1 antibody 10F4 (murine or humanized) by dilution to 5 μg/ml with 10 mM sodium acetate, pH 4.8, before injection at a flow rate of 5 μl/minute to achieve approximately 500 response units (RU) of coupled antibody. Next, 1M ethanolamine was injected to block unreacted groups. […] Association rates (kon) and dissociation rates (koff) were calculated using a simple one-to-one Langmuir binding model (BIAevaluation Software version 3.2). The equilibrium dissociation constant (Kd) was calculated as the ratio koff/kon. Anti-CD22 antibody, RFB4, was used as a control (Chemicon International, Inc., Temecula, Calif., catalog no. CBL147).

[4] = test system: cynomolgus monkey (cyno) CD22 expressed on the surface of CHO cells; assay: Cell-based competitive binding assay with 125I antibody, Scatchard analysis; settings: 4 hours at 4° C.
cynomolgus monkey (cyno) CD22 expressed on the surface of CHO cells, sequence (as listed by the source): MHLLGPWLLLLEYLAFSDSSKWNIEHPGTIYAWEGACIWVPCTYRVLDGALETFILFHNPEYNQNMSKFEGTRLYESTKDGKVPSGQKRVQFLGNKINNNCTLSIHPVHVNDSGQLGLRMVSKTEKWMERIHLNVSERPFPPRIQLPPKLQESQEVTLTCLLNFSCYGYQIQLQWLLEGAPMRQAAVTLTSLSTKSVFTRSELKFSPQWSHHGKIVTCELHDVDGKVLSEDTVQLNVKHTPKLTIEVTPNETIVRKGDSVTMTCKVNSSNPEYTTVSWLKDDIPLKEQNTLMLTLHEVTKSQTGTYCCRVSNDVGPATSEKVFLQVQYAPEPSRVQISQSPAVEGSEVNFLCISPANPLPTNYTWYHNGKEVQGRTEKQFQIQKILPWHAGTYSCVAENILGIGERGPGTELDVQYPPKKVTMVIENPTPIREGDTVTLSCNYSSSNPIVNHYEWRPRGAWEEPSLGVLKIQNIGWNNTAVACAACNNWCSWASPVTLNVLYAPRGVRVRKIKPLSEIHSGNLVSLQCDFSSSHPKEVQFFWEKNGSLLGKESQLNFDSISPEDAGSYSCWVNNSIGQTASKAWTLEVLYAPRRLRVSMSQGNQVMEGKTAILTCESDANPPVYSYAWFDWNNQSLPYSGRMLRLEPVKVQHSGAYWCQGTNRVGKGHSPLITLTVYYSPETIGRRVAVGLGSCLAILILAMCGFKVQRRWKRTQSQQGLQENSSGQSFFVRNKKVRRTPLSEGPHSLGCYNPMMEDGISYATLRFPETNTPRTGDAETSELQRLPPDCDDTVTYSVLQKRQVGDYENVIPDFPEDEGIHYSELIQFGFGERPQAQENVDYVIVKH
Method: Briefly, CHO cells stably expressing full length human CD22 (SEQ ID NO:27) or cynomolgus monkey (cyno) CD22 (SEQ ID NO:31). […] A cell-based, competitive binding assay was performed using serially diluted, unlabeled anti-CD22 antibody. Antibodies were allowed to bind to the cells for 4 hours at 4° C. Binding affinity, KD, of the antibodies was determined in accordance with standard Scatchard analysis performed utilizing a non-linear curve fitting program (see, for example, Munson et al., Anal Biochem, 107: 220-239, 1980).

[5] = test system: BJAB-luc cells; assay: BJAB-luc xenograft tumor volume reduction; type: in vivo, SCID mice; settings: single I.V. treatment, 32 days
Method: Sixty-five SCID mice were injected with 2×10^7 BJAB-luc cells subcutaneously in a volume of 0.2 ml per mouse in the flank. Cells were suspended in HBSS. When the mean tumor size reached 100-200 mm^3, mice were randomly grouped into four groups of 9 mice each and given a single I.V. treatment (via the tail vein) of the anti-CD22 or control antibody indicated in Table 4, below.
Mean tumor volume was monitored in each treatment group for 32 days post-antibody injection. Tumor measurements were taken with calipers. Efficacy of the toxin-conjugated anti-CD22 antibodies was determined by comparison to the control and unconjugated antibodies. […]

[6] = Table 4 study, 200 μg/m^2 DM1 (naked antibody 3.4 mg/kg)
[7] = Table 5 study, 200 μg/m^2 DM1 (naked antibody 4.5 mg/kg)

Molecule: Thio 10F4v3-HC(A118C)-BMPEO-DM1: conjugation of A118C thio hu HC-10F4v3 and bmpeo-DM1
- efficacy on mean tumor volume [1]: intermediate efficacy

Molecule: Thio 10F4v3-LC(V205C)-MCvcPAB-MMAE: conjugation of V205C thio hu LC-10F4v3 and MC-val-cit-PAB-MMAE
- mean tumor volume [2]: reduction in mean tumor volume for the duration of the study
- mean tumor volume ([2]; listed as 10F4-LC-V210C-MCvcPAB-MMAE): decrease in tumor volume during the study

B1: Chimeric 10F4: chimeric 10F4 anti-CD22 antibody (antibody, V domains shown)
VH: QVQLQQSGPELVKPGASVKISCKASGYEFSRSWMNWVKQRPGQGREWIGRIYPGDGDTNYSGKFKGKATLTADKSSSTAYMQLSSLTSVDSAVYFCARDGSSWDWYFDVWGAGTTVTVSS
VL: DILMTQTPLSLPVSLGDQASISCRSSQSIVHSNGNTFLEWYLQKPGQSPKLLIYKVSNRFSGVPDRFSGSGSGTDFTLKISRVEAEDLGVYYCFQGSQFPYTFGGGTKVEIK
- koff/10^−4 [3]: 4.2
- kon/10^5 [3]: 0.26

B2: Humanized 10F4v1: humanized 10F4 version 1, VH SEQ ID NO:16, VL SEQ ID NO:17, IgG1 (antibody, V domains shown)
VH: EVQLVESGGGLVQPGGSLRLSCAASGYEFSRSWMNWVRQAPGKGLEWVGRIYPGDGDTNYSGKFKGKATLTADKSSSTAYLQMNSLRAEDTAVYYCARDGSSWDWYFDYWGQGTLVTVSS
VL: DIQMTQSPSSLSASVGDRVTITCRSSQSIVHSNGNTFLEWYQQKPGKAPKLLIYKVSNRFSGVPSRFSGSRSGTDFTLTISSLQPEDFATYYCFQGSQFPYTFGQGTKVEIKR
modifications: IgG1 constant regions; sequence is synthesized
- Kd ([4]; listed as Hu 10F4v1): 1.4 nM and 1.8 nM
- CR (number of animals attaining complete remission) [5, 6]: 0
- PR (number of animals with tumor regressed 50-99% from its initial volume) [5, 6]: 0
- TI (tumor incidence at the last time point; tumor-bearing animals / total animals) [5, 6]: 9/9

B3: Humanized 10F4v2: humanized 10F4 version 2, N28V in HVR-L1, VH SEQ ID NO:16, VL SEQ ID NO:18, IgG1 (antibody, V domains shown)
VH: EVQLVESGGGLVQPGGSLRLSCAASGYEFSRSWMNWVRQAPGKGLEWVGRIYPGDGDTNYSGKFKGKATLTADKSSSTAYLQMNSLRAEDTAVYYCARDGSSWDWYFDYWGQGTLVTVSS
VL: DIQMTQSPSSLSASVGDRVTITCRSSQSIVHSVGNTFLEWYQQKPGKAPKLLIYKVSNRFSGVPSRFSGSRSGTDFTLTISSLQPEDFATYYCFQGSQFPYTFGQGTKVEIKR
modifications: IgG1 constant regions; sequence is synthesized
- Kd [4]: 2.1 nM
- CR (number of animals attaining complete remission) [5, 7]: 0
- PR (number of animals with tumor regressed 50-99% from its initial volume) [5, 7]: 0
- TI (tumor incidence at the last time point; tumor-bearing animals / total animals) [5, 7]: 9/9

— patent publication US8394607B2, “Anti-CD22 antibodies and immunoconjugates and methods of use” (Genentech, Inc., priority 2006, dated 2013)
